One series has as its system biotinyl-Trp-oxazolone. The series can be described thus: self-aminoacylation, catalytic enhancement (BWO) (fold over background); higher = more active; k-Seq, kA / k0A0; sequences stand for … in GGGAAUGGAUCCACAUCUACGAAUUC…UUCACUGCAGACUUGACGAAGCUG
An outline of the steps:
(§1)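 Mutagenized RNA pools with a 21-nt variable region (0.43 μM) reacted with each biotinyl-aminoacyl-oxazolone at 2–1250 μM. Reactions ran in 50 μL HEPES/NaCl/KCl/MgCl2/CaCl2 buffer with 5% acetonitrile, pH 6.9–7.0, for 90 minutes at room temperature. Streptavidin-captured RNA was quantified by triplicate qPCR and Illumina sequencing, and per-sequence fraction reacted was fit to a pseudo-first-order model with 1000 bootstraps. Catalytic enhancement is median kA divided by the uncatalyzed rate, the low-activity peak of a bimodal Gaussian fit.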

A further series has as its system biotinyl-Leu-oxazolone. The series can be described thus: self-aminoacylation, catalytic enhancement (BLO) (fold over background); higher = more active; k-Seq, kA / k0A0; sequences stand for … in GGGAAUGGAUCCACAUCUACGAAUUC…UUCACUGCAGACUUGACGAAGCUG
In a few lines:
as §1

A further series deals with biotinyl-Val-oxazolone. The experiment in a line: self-aminoacylation, catalytic enhancement (BVO) (fold over background); higher = more active; k-Seq, kA / k0A0; sequences stand for … in GGGAAUGGAUCCACAUCUACGAAUUC…UUCACUGCAGACUUGACGAAGCUG
An outline of the steps: as §1

In another series the test system is biotinyl-Ile-oxazolone. The series can be described thus: self-aminoacylation, catalytic enhancement (BIO) (fold over background); higher = more active; k-Seq, kA / k0A0; sequences stand for … in GGGAAUGGAUCCACAUCUACGAAUUC…UUCACUGCAGACUUGACGAAGCUG
In a few lines:
as §1

A further series relates to biotinyl-Met-oxazolone. The experiment in a line: self-aminoacylation, catalytic enhancement (BMO) (fold over background); higher = more active; k-Seq, kA / k0A0; sequences stand for … in GGGAAUGGAUCCACAUCUACGAAUUC…UUCACUGCAGACUUGACGAAGCUG
An outline of the steps: as §1

The next series has as its system biotinyl-Phe-oxazolone. The series can be described thus: self-aminoacylation, catalytic enhancement (BFO) (fold over background); higher = more active; k-Seq, kA / k0A0; sequences stand for … in GGGAAUGGAUCCACAUCUACGAAUUC…UUCACUGCAGACUUGACGAAGCUG
An outline of the steps:
as §1

Fewer inactive variants are shown than the library holds.

With “AUACACCUAGGUCAGCGGGUG [Fam2.2 aminoacylation ribozyme variant]”, the self-aminoacylation worked out at 3.08 in the series with biotinyl-Trp-oxazolone; 3.49 with biotinyl-Leu-oxazolone; 2.15 in the series on biotinyl-Val-oxazolone; 2.29 in the series on biotinyl-Ile-oxazolone; 3.8 in the series with biotinyl-Met-oxazolone; 15.5 with biotinyl-Phe-oxazolone.
Regarding “AUACACCUAGGUCAUAGGGUG [Fam2.2 aminoacylation ribozyme variant]”, the self-aminoacylation in the series on biotinyl-Trp-oxazolone was found to be 2.14; in the series with biotinyl-Leu-oxazolone, 1.36; with biotinyl-Val-oxazolone it was 1.43; with biotinyl-Ile-oxazolone, 1.35; in the series with biotinyl-Met-oxazolone, 1.23; with biotinyl-Phe-oxazolone, 3.76.
Consider “AUACACCUAGGUCAUCGGGGG [Fam2.2 aminoacylation ribozyme variant]”, for which the self-aminoacylation came out at 1.22 with biotinyl-Trp-oxazolone; 1.39 in the series with biotinyl-Leu-oxazolone; 1.73 in the series on biotinyl-Val-oxazolone; 1.85 in the series on biotinyl-Ile-oxazolone; 1.29 in the series with biotinyl-Met-oxazolone; 4.96 with biotinyl-Phe-oxazolone.
With “AUACACCUAGGUCAUCGGGUG [Fam2.2 aminoacylation ribozyme variant]”, the self-aminoacylation in the series on biotinyl-Trp-oxazolone was 4.29; in the series on biotinyl-Leu-oxazolone, 3.88; in the series on biotinyl-Val-oxazolone it was 2.96; in the series with biotinyl-Ile-oxazolone, 2.93; in the series with biotinyl-Met-oxazolone, 3.88; in the series with biotinyl-Phe-oxazolone it was 19.8.
As for “AUACACCUAGGUCAUCGGGUU [Fam2.2 aminoacylation ribozyme variant]”, the self-aminoacylation in the series with biotinyl-Trp-oxazolone was 2.69; with biotinyl-Leu-oxazolone, 2.79; in the series on biotinyl-Val-oxazolone it was 2.14; in the series on biotinyl-Ile-oxazolone, 2.4; with biotinyl-Met-oxazolone, 2.15; in the series with biotinyl-Phe-oxazolone it was 1.76.
Consider “AUACACCUAGGUCAUGGGGUG [Fam2.2 aminoacylation ribozyme variant]”, for which the self-aminoacylation stood at 3.4 in the series on biotinyl-Trp-oxazolone; 3.49 in the series with biotinyl-Leu-oxazolone; 2.26 in the series on biotinyl-Val-oxazolone; 2.52 in the series on biotinyl-Ile-oxazolone; 3.51 in the series on biotinyl-Met-oxazolone; 18.6 with biotinyl-Phe-oxazolone.
For “AUACACCUGGGUCAUCGGGUG [Fam2.2 aminoacylation ribozyme variant]”, the self-aminoacylation was 3.69 in the series on biotinyl-Trp-oxazolone; 4.41 in the series with biotinyl-Leu-oxazolone; 3.54 with biotinyl-Val-oxazolone; 3.31 in the series on biotinyl-Ile-oxazolone; 4.39 in the series on biotinyl-Met-oxazolone; 14.8 in the series with biotinyl-Phe-oxazolone.
For “AUACACCUUGGUCAUCGGGUG [Fam2.2 aminoacylation ribozyme variant]”, the self-aminoacylation in the series with biotinyl-Trp-oxazolone is 4.4; with biotinyl-Leu-oxazolone, 4.72; with biotinyl-Val-oxazolone, 2.89; in the series with biotinyl-Ile-oxazolone, 3.47; in the series on biotinyl-Met-oxazolone it was 3.63; in the series on biotinyl-Phe-oxazolone, 19.9.
Turning to “AUACUGCAAACAAUCGGUCUG [Fam1A.1 aminoacylation ribozyme variant]”, the self-aminoacylation with biotinyl-Trp-oxazolone turned out to be 1.44; in the series with biotinyl-Leu-oxazolone it was 1.18; in the series with biotinyl-Val-oxazolone, 1.05; in the series with biotinyl-Ile-oxazolone, 1.08; in the series with biotinyl-Met-oxazolone, 1.09; in the series on biotinyl-Phe-oxazolone, 2.49.
Regarding “AUACUUCAAACAAGCGGUCUG [Fam1A.1 aminoacylation ribozyme variant]”, the self-aminoacylation in the series with biotinyl-Trp-oxazolone was 0.889; in the series on biotinyl-Leu-oxazolone it was 1.01; in the series on biotinyl-Val-oxazolone, 0.986; with biotinyl-Ile-oxazolone it was 0.977; in the series with biotinyl-Met-oxazolone, 0.884; in the series on biotinyl-Phe-oxazolone, 0.83.
As for “AUACUUCAAACAAUAGGUCUG [Fam1A.1 aminoacylation ribozyme variant]”, the self-aminoacylation in the series on biotinyl-Trp-oxazolone worked out at 0.803; in the series with biotinyl-Leu-oxazolone, 0.835; with biotinyl-Val-oxazolone it was 0.923; in the series with biotinyl-Ile-oxazolone, 1.08; with biotinyl-Met-oxazolone it was 0.812; with biotinyl-Phe-oxazolone it was 1.25.
In the case of “AUACUUCAAACAAUCGAUCUG [Fam1A.1 aminoacylation ribozyme variant]”, the self-aminoacylation in the series with biotinyl-Trp-oxazolone turned out to be 0.648; with biotinyl-Leu-oxazolone, 0.485; with biotinyl-Val-oxazolone, 0.59; in the series with biotinyl-Ile-oxazolone it was 0.684; in the series on biotinyl-Met-oxazolone, 0.535; in the series on biotinyl-Phe-oxazolone it was 0.915.
As to “AUACUUCAAACAAUCGUUCUG [Fam1A.1 aminoacylation ribozyme variant]”, the self-aminoacylation with biotinyl-Trp-oxazolone worked out at 0.897; with biotinyl-Leu-oxazolone, 0.706; in the series with biotinyl-Val-oxazolone it was 0.745; with biotinyl-Ile-oxazolone, 0.709; in the series with biotinyl-Met-oxazolone, 0.81; in the series with biotinyl-Phe-oxazolone, 1.23.
Turning to “AUACUUCAAACCAUCGGUCUG [Fam1A.1 aminoacylation ribozyme variant]”, the self-aminoacylation in the series on biotinyl-Trp-oxazolone is 1.07; in the series on biotinyl-Leu-oxazolone, 0.902; with biotinyl-Val-oxazolone, 0.917; in the series on biotinyl-Ile-oxazolone, 1.1; with biotinyl-Met-oxazolone, 0.774; in the series on biotinyl-Phe-oxazolone, 0.887.
In the case of “AUACUUCAAGCAAUCGGUCUG [Fam1A.1 aminoacylation ribozyme variant]”, the self-aminoacylation in the series with biotinyl-Trp-oxazolone was found to be 1.48; in the series with biotinyl-Leu-oxazolone, 0.853; in the series on biotinyl-Val-oxazolone, 0.77; in the series with biotinyl-Ile-oxazolone, 0.786; with biotinyl-Met-oxazolone, 0.824; in the series on biotinyl-Phe-oxazolone, 2.15.
As to “AUCACCCCGGUCAUCGAGUGA [Fam2.1 aminoacylation ribozyme variant]”, the self-aminoacylation in the series on biotinyl-Trp-oxazolone was 9.73; with biotinyl-Leu-oxazolone, 10.2; with biotinyl-Val-oxazolone, 4.47; in the series with biotinyl-Ile-oxazolone, 4.51; with biotinyl-Met-oxazolone it was 8.33; in the series with biotinyl-Phe-oxazolone, 52.6.
On to “AUCACCCUGGUCAUAGAGUGA [Fam2.1 aminoacylation ribozyme variant]”, for which the self-aminoacylation was 13.2 with biotinyl-Trp-oxazolone; 13.2 in the series on biotinyl-Leu-oxazolone; 4.92 in the series on biotinyl-Val-oxazolone; 5.17 with biotinyl-Ile-oxazolone; 13.6 with biotinyl-Met-oxazolone; 85.7 with biotinyl-Phe-oxazolone.
For the sequence “AUCACCCUGGUCAUCCAGUGA [Fam2.1 aminoacylation ribozyme variant]”, the self-aminoacylation was determined as 6.77 in the series on biotinyl-Trp-oxazolone; 7.91 in the series with biotinyl-Leu-oxazolone; 3.61 in the series on biotinyl-Val-oxazolone; 4.34 in the series on biotinyl-Ile-oxazolone; 6.56 in the series with biotinyl-Met-oxazolone; 41.2 in the series with biotinyl-Phe-oxazolone.
Consider “AUCACUCUGGUCAUCGAGUGA [Fam2.1 aminoacylation ribozyme variant]”, for which the self-aminoacylation in the series on biotinyl-Trp-oxazolone came to 4.03; with biotinyl-Leu-oxazolone, 3.85; with biotinyl-Val-oxazolone, 2.9; in the series with biotinyl-Ile-oxazolone, 3.2; in the series on biotinyl-Met-oxazolone, 3.12; in the series on biotinyl-Phe-oxazolone it was 13.9.
For “AUCAUCCUGGUCAUCGAGUGA [Fam2.1 aminoacylation ribozyme variant]”, the self-aminoacylation in the series on biotinyl-Trp-oxazolone was 10.5; in the series with biotinyl-Leu-oxazolone, 10.1; in the series with biotinyl-Val-oxazolone, 4.82; with biotinyl-Ile-oxazolone it was 4.91; in the series with biotinyl-Met-oxazolone, 9.33; with biotinyl-Phe-oxazolone, 36.4.
In the case of “AUCCACAUAGGUCAUCGGGUG [Fam2.2 aminoacylation ribozyme variant]”, the self-aminoacylation with biotinyl-Trp-oxazolone was found to be 8.91; with biotinyl-Leu-oxazolone it was 12.1; with biotinyl-Val-oxazolone, 6.77; in the series with biotinyl-Ile-oxazolone, 5.82; in the series on biotinyl-Met-oxazolone it was 10.1; in the series with biotinyl-Phe-oxazolone it was 78.8.
Turning to “AUCCACCCAGGUCAUCGGGUG [Fam2.2 aminoacylation ribozyme variant]”, the self-aminoacylation with biotinyl-Trp-oxazolone stood at 7.4; in the series on biotinyl-Leu-oxazolone, 7.15; in the series on biotinyl-Val-oxazolone, 5.18; in the series with biotinyl-Ile-oxazolone, 4.15; in the series with biotinyl-Met-oxazolone it was 5.87; in the series on biotinyl-Phe-oxazolone, 40.

Values taken from the supplement of paper PMC9233669.
